For one assay, the target named is AgR (Rhizobium NT-26). Put plainly: SEC; Superose 6; 50 mM Tris-HCl pH 8.0, 30-500 mM NaCl, 1 mM βME; peak positions invariant irrespective of loading concentrations. For orientation: Size exclusion chromatography separates by hydrodynamic size, large species first.
Assay [1] has as its target BphP1 kinase core (BphP1-HK, residues 462-703) (Rhizobium NT-26). The assay is described as above.
For assay [2], the target named is ExsG (wild-type, full-length) (Rhizobium NT-26). Put plainly: AUC; sedimentation velocity; 50 mM Tris-HCl pH 8.0, 250 mM or 30 mM NaCl; seven concentrations 0.2-2 mg/ml; 40,000 rpm, 20°C; c(s) in SEDFIT.
Assay [3] has the same target. Nature of the assay: AUC; sedimentation equilibrium; 50 mM Tris-HCl pH 8.0, 250 mM NaCl; six concentrations 0.1-1.5 mg/ml; 7, 11, 16, 24 krpm, 20°C; SEDFIT and SEDPHAT.
For assay [4] the target is unchanged. Put plainly: native MS; nESI-MS at raised ionic strength: 400, 600 and 800 mM ammonium acetate pH 8, 0.1 mM DTT; 30-40 μM (monomer); disassembly of the hexamer.
For assay [5] the target is unchanged. Nature of the assay: native MS; nESI-MS and IM-MS; 150 mM ammonium acetate pH 8, 0.1 mM DTT; 30-40 μM (monomer); native, phosphoramidate-treated or AMP-PNP-treated samples.
The target is the same in assay [6]. The assay is described as above. This is another data set of the same source.
Assay [7] deals with ExsG phosphorylated on Asp62 by phosphoramidate (Rhizobium NT-26). The assay is described as above.
Assay [8] deals with ExsG receiver domain (ExsG-REC, residues 1-129) (Rhizobium NT-26). Nature of the assay: SEC; Superose 6; 50 mM Tris-HCl pH 8.0, 30-500 mM NaCl, 1 mM βME; peak positions invariant irrespective of loading concentrations.

Several values for one entry are separate records, joined by “and”; a condition that tells them apart may be missing. Identical values can stand only once.

As for AgR (natural protein), the stoichiometry N (in general, the number of molecules, sites or subunits per partner or assembly) with AgR (Rhizobium NT-26) is 2.
Regarding “BphP1 kinase core (BphP1-HK, residues 462-703) (domain or fragment)”, in assay [1], the stoichiometry N was 2.
As to ExsG (wild-type, full-length) (enzyme), the stoichiometry N was 6 in assay [2]; 6 in [3]; 2 and 4 in [4]; 6 in [5]; 2 in assay [6].
In the case of “ExsG phosphorylated on Asp62 by phosphoramidate (enzyme)”, the stoichiometry N in [7] was determined as 6.
“ExsG receiver domain (ExsG-REC, residues 1-129) (domain or fragment)” showed a stoichiometry N in assay [8] of 2.

Values taken from publication PMC3899027.
